According to the supplement of paper PMC3353916:
± gives the standard deviation of the averaged measurements.

Tested on: Sindbis virus TE/5'2J-GFP
Assay: percent infected (GFP+ in RFP+ ISG-expressing cells); higher = more infection (less antiviral activity)
Procedure: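 Confirmatory testing of 87 ISGs. Triplicate wells of BHK/HA-Zeo (control) or BHK/NZAP-Zeo (ZAP) cells were transduced with lentiviruses co-expressing a human ISG plus TagRFP, then infected 48 h later with SINV TE/5'2J-GFP (moi 5). The % GFP+ cells among RFP+ cells was measured by flow cytometry at 8 h post infection. Fluc lentivirus served as control. Three independent experiments.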

[1] = experiment: confirmatory screen 1, BHK/HA-Zeo (control)
[2] = experiment: confirmatory screen 1, BHK/NZAP-Zeo (ZAP)
[3] = experiment: confirmatory screen 2, BHK/HA-Zeo (control)
[4] = experiment: confirmatory screen 2, BHK/NZAP-Zeo (ZAP)
[5] = experiment: confirmatory screen 3, BHK/HA-Zeo (control)
[6] = experiment: confirmatory screen 3, BHK/NZAP-Zeo (ZAP)
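Note: Interferon-defective BHK-21 derivatives, ZAP line overexpressing the rat ZAP N-terminal zinc finger domain fused to Zeocin resistance, GFP scored within live singlet TagRFP+ cells.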

Row | Substance | percent infected [1] [%] | percent infected [2] [%] | percent infected [3] [%] | percent infected [4] [%] | percent infected [5] [%] | percent infected [6] [%]
1 | MSNGYSTDENFRYLISCFRARVKMYIQVEPVLDYLTFLPAEVKEQIQRTVATSGNMQAVELLLSTLEKGVWHLGWTREFVEALRRTGSPLAARYMNPELTDLPSPSFENAHDEYLQLLNLLQPTLVDKLLVRDVLDKCMEEELLTIEDRNRIAAAENNGNESGVRELLKRIVQKENWFSAFLNVLRQTGNNELVQELTGSDCSESNAEIENLSQVDGPQVEEQLLSTTVQPNLEKEVWGMENNSSESSFADSSVVSESDTSLAEGSVSCLDESLGHNSNMGSDSGTMGSDSDEENVAARASPEPELQLRPYQMEVAQPALEGKNIIICLPTGSGKTRVAVYIAKDHLDKKKKASEPGKVIVLVNKVLLVEQLFRKEFQPFLKKWYRVIGLSGDTQLKISFPEVVKSCDIIISTAQILENSLLNLENGEDAGVQLSDFSLIIIDECHHTNKEAVYNNIMRHYLMQKLKNNRLKKENKPVIPLPQILGLTASPGVGGATKQAKAEEHILKLCANLDAFTIKTVKENLDQLKNQIQEPCKKFAIADATREDPFKEKLLEIMTRIQTYCQMSPMSDFGTQPYEQWAIQMEKKAAKEGNRKERVCAEHLRKYNEALQINDTIRMIDAYTHLETFYNEEKDKKFAVIEDDSDEGGDDEYCDGDEDEDDLKKPLKLDETDRFLMTLFFENNKMLKRLAENPEYENEKLTKLRNTIMEQYTRTEESARGIIFTKTRQSAYALSQWITENEKFAEVGVKAHHLIGAGHSSEFKPMTQNEQKEVISKFRTGKINLLIATTVAEEGLDIKECNIVIRYGLVTNEIAMVQARGRARADESTYVLVAHSGSGVIEHETVNDFREKMMYKAIHCVQNMKPEEYAHKILELQMQSIMEKKMKTKRNIAKHYKNNPSLITFLCKNCSVLACSGEDIHVIEKMHHVNMTPEFKELYIVRENKALQKKCADYQINGEIICKCGQAWGTMMVHKGLDLPCLKIRNFVVVFKNNSTKKQYKKWVELPITFPNLDYSECCLFSDED [IFIH1] | 70.9 ± 2.3 | 14.9 ± 0.81 | 95.18 ± 0.27 | 92.703 ± 0.051 | 85 ± 1.1 | 81 ± 2.6
2 | MAFF | 92.89 ± 0.73 | 70.1 ± 7.5 | 94.1 ± 0.95 | 93.98 ± 0.15 | 93.24 ± 0.65 | 91.23 ± 0.34
3 | MPSLWDRFSSSSTSSSPSSLPRTPTPDRPPRSAWGSATREEGFDRSTSLESSDCESLDSSNSGFGPEEDTAYLDGVSLPDFELLSDPEDEHLCANLMQLLQESLAQARLGSRRPARLLMPSQLVSQVGKELLRLAYSEPCGLRGALLDVCVEQGKSCHSVGQLALDPSLVPTFQLTLVLRLDSRLWPKIQGLFSSANSPFLPGFSQSLTLSTGFRVIKKKLYSSEQLLIEEC [DDIT4] | 95.2 ± 1.2 | 76.2 ± 2.5 | 96.4 ± 0.11 | 94.99 ± 0.17 | 94.1 ± 0.29 | 92.99 ± 0.24
